This passage reports EC50, binding result and Kd results from patent publication US11028180.

One assay deals with human Jagged1-His (human, UniProt P78504). Description: ELISA.
A further assay addresses T1, murine DLL4-His (mouse, UniProt Q9JI71).
T1 chain: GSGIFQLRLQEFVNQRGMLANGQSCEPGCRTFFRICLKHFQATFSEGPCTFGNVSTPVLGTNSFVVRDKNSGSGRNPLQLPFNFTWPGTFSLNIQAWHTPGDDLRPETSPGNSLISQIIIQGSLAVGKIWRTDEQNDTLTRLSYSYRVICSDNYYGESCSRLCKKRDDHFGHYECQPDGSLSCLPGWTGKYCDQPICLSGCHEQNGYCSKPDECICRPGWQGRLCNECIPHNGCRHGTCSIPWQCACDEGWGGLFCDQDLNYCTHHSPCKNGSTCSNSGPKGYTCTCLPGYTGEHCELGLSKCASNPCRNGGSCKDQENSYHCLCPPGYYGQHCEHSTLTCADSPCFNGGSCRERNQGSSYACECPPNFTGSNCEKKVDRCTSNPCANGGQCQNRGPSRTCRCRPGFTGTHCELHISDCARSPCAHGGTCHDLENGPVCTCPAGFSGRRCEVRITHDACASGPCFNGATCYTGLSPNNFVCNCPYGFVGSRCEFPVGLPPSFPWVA
In words: ELISA. Background: In an ELISA, binding on a coated surface is turned into a signal by an enzyme label.

In assay [1] the target is T2, human Jagged1 on 293/293T cells (human, UniProt P78504). In words: KinExA, on-cell.
Assay [2] addresses T2, human Jagged1 on 293/293T cells. In words: FACS. (A flow cytometer gives signals particle by particle.)
Assay [3] has as its target human Jagged1 ECD-His (Met1-Ser1046) (human, UniProt P78504). Description: BLI.
The next assay concerns the target human Jagged2-Fc (human, UniProt Q9Y219). In words: ELISA.
Assay [4] addresses rat Jagged1 on 293T cells (rat, UniProt Q63722). Description: FACS.
The target of a further assay is human DLL4-His (human, UniProt Q9NR61). Description: ELISA.
The next assay has as its target murine DLL1-His (mouse, UniProt Q61483). Description: ELISA.
The next assay concerns the target murine Jagged2-Fc (mouse, UniProt Q9QYE5). In words: ELISA.
For a further assay, the target named is rat Jagged1-Fc (rat, UniProt Q63722). In words: ELISA.
The target of the next assay is human Jagged1-Fc (human, UniProt P78504). Description: ELISA.
The target of assay [5] is T3, murine Jagged1 on 293T cells (mouse, UniProt Q9QXX0).
T3 chain: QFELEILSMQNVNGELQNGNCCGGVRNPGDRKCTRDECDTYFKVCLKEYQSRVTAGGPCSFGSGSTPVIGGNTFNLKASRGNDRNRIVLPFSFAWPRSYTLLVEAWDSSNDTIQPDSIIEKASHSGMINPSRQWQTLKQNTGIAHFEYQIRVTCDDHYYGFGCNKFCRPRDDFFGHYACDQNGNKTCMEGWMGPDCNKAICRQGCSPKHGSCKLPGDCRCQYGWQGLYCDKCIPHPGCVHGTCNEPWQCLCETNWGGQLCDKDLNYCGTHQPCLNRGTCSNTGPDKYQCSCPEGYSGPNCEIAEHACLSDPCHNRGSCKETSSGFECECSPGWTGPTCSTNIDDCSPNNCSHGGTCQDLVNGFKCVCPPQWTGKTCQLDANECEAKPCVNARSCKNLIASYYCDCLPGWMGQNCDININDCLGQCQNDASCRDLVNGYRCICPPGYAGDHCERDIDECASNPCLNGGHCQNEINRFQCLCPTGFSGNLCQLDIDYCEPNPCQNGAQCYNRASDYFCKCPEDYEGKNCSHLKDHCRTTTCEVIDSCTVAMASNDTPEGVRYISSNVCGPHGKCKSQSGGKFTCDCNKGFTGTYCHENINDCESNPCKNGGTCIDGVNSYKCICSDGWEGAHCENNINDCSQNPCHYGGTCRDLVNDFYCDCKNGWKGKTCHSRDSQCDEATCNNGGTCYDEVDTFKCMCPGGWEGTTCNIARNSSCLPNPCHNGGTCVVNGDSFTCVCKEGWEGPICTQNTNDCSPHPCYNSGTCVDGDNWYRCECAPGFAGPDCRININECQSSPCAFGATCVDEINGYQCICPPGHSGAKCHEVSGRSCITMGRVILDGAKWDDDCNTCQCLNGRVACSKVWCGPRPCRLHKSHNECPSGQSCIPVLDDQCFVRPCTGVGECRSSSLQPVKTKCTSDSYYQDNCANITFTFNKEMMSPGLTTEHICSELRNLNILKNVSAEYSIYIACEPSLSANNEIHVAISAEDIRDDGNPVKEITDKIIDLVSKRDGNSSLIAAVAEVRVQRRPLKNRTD
Description: FACS.

murine DLL1-His, sequence (Q61483 18-545): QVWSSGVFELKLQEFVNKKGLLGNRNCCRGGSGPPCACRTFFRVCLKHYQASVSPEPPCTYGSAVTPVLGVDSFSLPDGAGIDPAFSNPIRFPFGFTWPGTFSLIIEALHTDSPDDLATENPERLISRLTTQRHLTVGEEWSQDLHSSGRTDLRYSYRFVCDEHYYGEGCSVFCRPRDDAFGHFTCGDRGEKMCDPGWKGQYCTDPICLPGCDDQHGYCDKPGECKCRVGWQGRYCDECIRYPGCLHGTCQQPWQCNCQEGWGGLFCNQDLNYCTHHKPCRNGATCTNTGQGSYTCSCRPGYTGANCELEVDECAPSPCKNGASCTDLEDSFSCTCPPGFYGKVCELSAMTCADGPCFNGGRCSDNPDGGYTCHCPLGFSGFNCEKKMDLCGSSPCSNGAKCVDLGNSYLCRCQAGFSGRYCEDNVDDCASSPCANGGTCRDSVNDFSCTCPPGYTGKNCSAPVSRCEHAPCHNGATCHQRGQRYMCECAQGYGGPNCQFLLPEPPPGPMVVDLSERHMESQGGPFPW
human DLL4-His, sequence (Q9NR61 27-529): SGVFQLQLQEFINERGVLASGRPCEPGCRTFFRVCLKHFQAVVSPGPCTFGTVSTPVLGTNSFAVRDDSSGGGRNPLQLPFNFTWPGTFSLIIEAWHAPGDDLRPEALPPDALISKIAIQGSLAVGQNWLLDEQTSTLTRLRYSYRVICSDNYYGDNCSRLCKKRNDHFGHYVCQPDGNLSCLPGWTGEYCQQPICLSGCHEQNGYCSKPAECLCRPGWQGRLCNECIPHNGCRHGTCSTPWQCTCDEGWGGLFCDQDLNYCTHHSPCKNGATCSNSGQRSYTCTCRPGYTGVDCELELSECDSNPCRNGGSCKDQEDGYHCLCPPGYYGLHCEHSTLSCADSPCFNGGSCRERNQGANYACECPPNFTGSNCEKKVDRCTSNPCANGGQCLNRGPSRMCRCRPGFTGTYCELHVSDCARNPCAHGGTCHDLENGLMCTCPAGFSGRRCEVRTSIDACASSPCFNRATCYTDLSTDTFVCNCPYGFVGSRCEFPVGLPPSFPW
murine Jagged2-Fc, sequence (Q9QYE5 24-1082): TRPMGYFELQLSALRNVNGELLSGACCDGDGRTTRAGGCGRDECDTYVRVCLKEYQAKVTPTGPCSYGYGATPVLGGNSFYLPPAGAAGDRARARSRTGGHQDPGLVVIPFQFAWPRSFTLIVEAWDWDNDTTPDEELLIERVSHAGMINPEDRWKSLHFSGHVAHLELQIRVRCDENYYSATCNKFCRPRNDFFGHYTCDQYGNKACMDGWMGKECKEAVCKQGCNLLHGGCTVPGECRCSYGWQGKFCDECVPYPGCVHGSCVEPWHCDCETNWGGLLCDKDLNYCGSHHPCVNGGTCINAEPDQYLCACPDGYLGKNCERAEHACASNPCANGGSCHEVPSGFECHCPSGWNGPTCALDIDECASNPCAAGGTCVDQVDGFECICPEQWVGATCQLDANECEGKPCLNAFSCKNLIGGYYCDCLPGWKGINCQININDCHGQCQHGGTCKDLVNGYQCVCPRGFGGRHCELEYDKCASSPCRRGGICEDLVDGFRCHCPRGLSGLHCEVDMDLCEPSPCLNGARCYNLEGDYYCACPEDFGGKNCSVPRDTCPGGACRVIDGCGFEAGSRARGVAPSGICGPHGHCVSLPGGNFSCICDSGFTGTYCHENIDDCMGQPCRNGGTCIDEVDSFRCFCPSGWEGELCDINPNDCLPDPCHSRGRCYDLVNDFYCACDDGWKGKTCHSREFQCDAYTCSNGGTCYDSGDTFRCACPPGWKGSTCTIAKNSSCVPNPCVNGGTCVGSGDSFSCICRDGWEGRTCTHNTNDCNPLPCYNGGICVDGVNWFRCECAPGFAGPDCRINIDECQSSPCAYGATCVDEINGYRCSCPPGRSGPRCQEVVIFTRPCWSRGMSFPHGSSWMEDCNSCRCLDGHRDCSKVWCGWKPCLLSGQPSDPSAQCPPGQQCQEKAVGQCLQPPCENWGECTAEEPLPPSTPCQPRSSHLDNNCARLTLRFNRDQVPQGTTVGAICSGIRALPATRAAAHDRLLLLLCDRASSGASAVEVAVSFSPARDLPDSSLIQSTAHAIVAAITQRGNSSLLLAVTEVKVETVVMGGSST
human Jagged2-Fc, sequence (Q9Y219 24-1080): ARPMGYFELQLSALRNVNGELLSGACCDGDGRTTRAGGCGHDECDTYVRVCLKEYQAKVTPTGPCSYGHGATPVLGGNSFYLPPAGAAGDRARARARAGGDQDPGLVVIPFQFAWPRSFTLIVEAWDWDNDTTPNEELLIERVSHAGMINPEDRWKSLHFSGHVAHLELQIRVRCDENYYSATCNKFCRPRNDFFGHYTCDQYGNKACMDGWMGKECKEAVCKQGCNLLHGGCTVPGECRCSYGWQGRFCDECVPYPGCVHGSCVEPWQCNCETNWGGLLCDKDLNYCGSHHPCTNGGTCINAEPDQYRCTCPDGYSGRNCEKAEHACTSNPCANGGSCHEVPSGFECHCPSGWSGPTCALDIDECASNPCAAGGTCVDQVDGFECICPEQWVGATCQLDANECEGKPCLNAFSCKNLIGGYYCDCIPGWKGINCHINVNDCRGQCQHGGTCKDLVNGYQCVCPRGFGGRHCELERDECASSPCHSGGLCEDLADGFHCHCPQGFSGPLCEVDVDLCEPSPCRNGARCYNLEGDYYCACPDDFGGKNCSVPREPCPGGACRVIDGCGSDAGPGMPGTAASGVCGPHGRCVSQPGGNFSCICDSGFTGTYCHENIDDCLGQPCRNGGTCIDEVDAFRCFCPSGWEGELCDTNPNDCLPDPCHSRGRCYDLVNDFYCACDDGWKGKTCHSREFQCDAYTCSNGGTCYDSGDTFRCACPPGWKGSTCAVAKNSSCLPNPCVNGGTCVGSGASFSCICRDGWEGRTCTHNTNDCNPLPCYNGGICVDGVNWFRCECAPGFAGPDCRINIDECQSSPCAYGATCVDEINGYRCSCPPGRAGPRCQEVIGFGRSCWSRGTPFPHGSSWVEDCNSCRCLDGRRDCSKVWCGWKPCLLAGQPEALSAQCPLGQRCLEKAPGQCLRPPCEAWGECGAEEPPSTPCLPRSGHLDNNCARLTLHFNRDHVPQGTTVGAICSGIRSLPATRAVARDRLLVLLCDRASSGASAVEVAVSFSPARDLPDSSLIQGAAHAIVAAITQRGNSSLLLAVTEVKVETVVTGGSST
human Jagged1 ECD-His (Met1-Ser1046), sequence (P78504 1-1046): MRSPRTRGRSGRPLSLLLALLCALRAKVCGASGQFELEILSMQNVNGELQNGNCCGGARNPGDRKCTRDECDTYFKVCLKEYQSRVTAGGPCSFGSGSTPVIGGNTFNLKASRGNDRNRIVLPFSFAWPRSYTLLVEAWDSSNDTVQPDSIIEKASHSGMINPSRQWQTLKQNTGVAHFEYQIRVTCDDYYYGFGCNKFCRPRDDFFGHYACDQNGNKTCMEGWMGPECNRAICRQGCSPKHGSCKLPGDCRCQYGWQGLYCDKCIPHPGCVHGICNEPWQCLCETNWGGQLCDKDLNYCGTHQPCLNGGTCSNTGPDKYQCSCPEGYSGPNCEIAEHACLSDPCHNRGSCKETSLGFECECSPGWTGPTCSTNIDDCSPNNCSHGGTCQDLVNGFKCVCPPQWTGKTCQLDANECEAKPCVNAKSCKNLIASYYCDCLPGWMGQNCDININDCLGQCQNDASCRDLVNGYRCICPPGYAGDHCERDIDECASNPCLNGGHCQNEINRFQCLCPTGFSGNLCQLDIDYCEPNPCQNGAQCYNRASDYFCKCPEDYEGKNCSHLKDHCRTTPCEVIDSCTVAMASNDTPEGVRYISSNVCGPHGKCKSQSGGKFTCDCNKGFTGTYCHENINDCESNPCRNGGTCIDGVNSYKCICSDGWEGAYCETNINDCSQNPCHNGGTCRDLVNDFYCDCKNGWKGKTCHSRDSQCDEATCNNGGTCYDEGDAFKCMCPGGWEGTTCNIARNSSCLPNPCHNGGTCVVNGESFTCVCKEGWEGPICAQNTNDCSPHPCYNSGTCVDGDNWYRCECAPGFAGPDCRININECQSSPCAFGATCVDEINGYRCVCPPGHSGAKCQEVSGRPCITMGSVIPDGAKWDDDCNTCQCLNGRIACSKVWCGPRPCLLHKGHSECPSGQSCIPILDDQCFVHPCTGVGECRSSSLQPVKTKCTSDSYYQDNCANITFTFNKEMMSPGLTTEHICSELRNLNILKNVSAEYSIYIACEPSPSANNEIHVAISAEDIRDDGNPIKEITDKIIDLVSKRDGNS

B1: 15D11.1 (antibody, V domains shown)
VH: QVTLKESGPVLVKPTETLTLTCTVSGFSLSNAEMGVSWIRQPPGKALEWLAHLFSNDEKSYSTSLKSRLTISKDTSKSQVVLTMTDLDPVDTATYYCARSFNWNYDFDYWGQGTLVTVSS
VL: QSALTQPASVSGSPGQSITISCTGTSSAVGGHNFVSWYQQYPGKAPKLMIYEVSNRPSGVSTRFSGSKSGNTASLTISGLQAEDEADYYCSSYTSSSTWVFGGGTRLTVL
With B1, the EC50 with human Jagged1-His turned out to be 0.39 nM; in assay [2], 0.29 nM; in [4] it was 0.25 nM; with rat Jagged1-Fc, 0.51 nM; with human Jagged1-Fc, 0.8 nM; in [5], 0.36 nM. The binding result with murine DLL4-His, with human Jagged2-Fc, with human DLL4-His, with murine DLL1-His and with murine Jagged2-Fc was “no binding” each time. Moreover, the Kd worked out at 0.125 nM in assay [1] and 0.614 nM in assay [3].

By EC50 is commonly meant the concentration giving half of the maximal effect. High values mean weaker potency, low ones greater potency. The Kd is the free concentration of one partner at which half of the binding sites on the other are occupied at equilibrium, for simple one-to-one binding.
